Data: patent US20180371107A1 (published 2018)
Residue numbers refer to the chain shown, from its start.

B1: anti-NSP4 antibody 1-2 (antibody, V domains shown)
VH: EVQLVESGGGLVQPGGSLRLSCAASGFTFSGYSIHWVRQAPGKGLEWVAGISPTNGYTDYADSVKGRFTISADTSKNTAYLQMNSLRAEDTAVYYCARLVFYRGVMDYWGQGTLVTVSS
VL: DIQMTQSPSSLSASVGDRVTITCRASQDVSTAVAWYQQKPGKAPKLLIYSASFLYSGVPSRFSGSGSGTDFTLTISSLQPEDFATYYCQQSYTTPPTFGQGTKVEIKR
B2: anti-NSP4 antibody 4-4 (antibody, V domains shown)
VH: EVQLVESGGGLVQPGGSLRLSCAASGFTFTSTSIHWVRQAPGKGLEWVAEITPHGGYTNYADSVKGRFTISADTSKNTAYLQMNSLRAEDTAVYYCARGRTKWGWLYGMDYWGQGTLVTVSS
VL: B1 VL
B3: anti-NSP4 antibody 1-5 (antibody, V domains shown)
VH: EVQLVESGGGLVQPGGSLRLSCAASGFTFTNNSISWVRQAPGKGLEWVGAISPNNGSTYYADSVKGRFTISADTSKNTAYLQMNSLRAEDTAVYYCARNAWHYSWVGVMDYWGQGTLVTVSS
VL: B1 VL
B4: anti-NSP4 antibody 1-1 (antibody, V domains shown)
VH: EVQLVESGGGLVQPGGSLRLSCAASGFTFSGSWISWVRQAPGKGLEWVGTISPYNGSTYYADSVKGRFTISADTSKNTAYLQMNSLRAEDTAVYYCARVLRPKVYASVMDYWGQGTLVTVSS
VL: B1 VL
B5: anti-NSP4 antibody 1-3 (antibody, V domains shown)
VH: EVQLVESGGGLVQPGGSLRLSCAASGFTFSDNWISWVRQAPGKGLEWVGYIYPASGYTDYADSVKGRFTISADTSKNTAYLQMNSLRAEDTAVYYCASDSPHAYWYAMDYWGQGTLVTVSS
VL: B1 VL
B6: anti-NSP4 antibody 4-2 (antibody, V domains shown)
VH: EVQLVESGGGLVQPGGSLRLSCAASGFTFSGSDISWVRQAPGKGLEWVGEIYPSNGDTYYADSVKGRFTISADTSKNTAYLQMNSLRAEDTAVYYCARSVRPSWWAMDYWGQGTLVTVSS
VL: B1 VL
B7: anti-NSP4 antibody 4-3 (antibody, V domains shown)
VH: EVQLVESGGGLVQPGGSLRLSCAASGFTFSSYDISWVRQAPGKGLEWVGTISPYDGYTDYADSVKGRFTISADTSKNTAYLQMNSLRAEDTAVYYCARYIRRYSVHYGMDYWGQGTLVTVSS
VL: B1 VL
B8: anti-NSP4 antibody 2-5 (antibody, V domains shown)
VH: EVQLVESGGGLVQPGGSLRLSCAASGFTFTGYGISWVRQAPGKGLEWVGWIYPASGATYYADSVKGRFTISADTSKNTAYLQMNSLRAEDTAVYYCARHRAFDWYPYYIGSSVMDYWGQGTLVTVSS
VL: B1 VL
B9: anti-NSP4 antibody 2-2 (antibody, V domains shown)
VH: EVQLVESGGGLVQPGGSLRLSCAASGFTFSSTAISWVRQAPGKGLEWVGEIYPSDGYTDYADSVKGRFTISADTSKNTAYLQMNSLRAEDTAVYYCARVKWAVSSLGVMDYWGQGTLVTVSS
VL: B1 VL
B10: affinity matured anti-NSP4 antibody clone 35.14 (Fab, V domains shown)
VH: EVQLVESGGGLVQPGGSLRLSCAASGFTFSDNDISWVRQAPGKGLEWVGSISPDNGDTNYADSVKGRFTISADTSKNTAYLQMNSLRAEDTAVYYCARDDVPAVFTSAMDYWGQGTLVTVSS
VL: B1 VL with T93G, T94F, P96L
B11: affinity matured anti-NSP4 antibody clone 35.50 (Fab, V domains shown)
VH: B10 VH
VL: B1 VL with T93D, T94F, P96L
B12: affinity matured anti-NSP4 antibody clone 35.62 (Fab, V domains shown)
VH: B10 VH
VL: B1 VL with Y92A, T93G, T94F, P96L
B13: affinity matured anti-NSP4 antibody clone 35.77 (Fab, V domains shown)
VH: EVQLVESGGGLVQPGGSLRLSCAASGFTFSGSGIHWVRQAPGKGLEWVAWISPTGGNTYYADSVKGRFTISADTSKNTAYLQMNSLRAEDTAVYYCAKRHLHNVAFDYWGQGTLVTVSS
VL: B1 VL with S91A, T93S, T94A
B14: anti-NSP4 antibody 2-3 (antibody, V domains shown)
VH: EVQLVESGGGLVQPGGSLRLSCAASGFTFTDSDISWVRQAPGKGLEWVAWISPSDGATDYADSVKGRFTISADTSKNTAYLQMNSLRAEDTAVYYCAHEASDDDYAIDYWGQGTLVTVSS
VL: B1 VL
B15: anti-NSP4 antibody 2-1 (antibody, V domains shown)
VH: EVQLVESGGGLVQPGGSLRLSCAASGFTFTDYSIHWVRQAPGKGLEWVAEIYPYSGDTYYADSVKGRFTISADTSKNTAYLQMNSLRAEDTAVYYCARDGDGWFDWAMDYWGQGTLVTVSS
VL: B1 VL
B16: anti-NSP4 antibody 2-4 (antibody, V domains shown)
VH: EVQLVESGGGLVQPGGSLRLSCAASGFTFSDYWISWVRQAPGKGLEWVAGISPNNGDTYYADSVKGRFTISADTSKNTAYLQMNSLRAEDTAVYYCAREDDDERDYAMDYWGQGTLVTVSS
VL: B1 VL
B17: anti-NSP4 antibody 5-2 (antibody, human IgG1, V domains shown)
VH: EVQLVESGGGLVQPGGSLRLSCAASGFTFSNTYISWVRQAPGKGLEWVGFIYPANGATYYADSVKGRFTISADTSKNTAYLQMNSLRAEDTAVYYCARRYRLSFDYWGQGTLVTVSS
VL: B1 VL
notes: also called Ab 5-2
B18: affinity matured anti-NSP4 antibody clone 51.72 (Fab, V domains shown)
VH: B13 VH with R99S, H100L, L101F
VL: B1 VL with T94A
B19: affinity matured anti-NSP4 antibody clone 51.50 (Fab, V domains shown)
VH: B13 VH with R99S, H100L, L101F
VL: B1 VL with S91A, Y92N, T93S
B20: affinity matured anti-NSP4 antibody clone 51.51 (Fab, V domains shown)
VH: B13 VH with K98R, R99G, H100L, L101F
VL: B1 VL with T94A
B21: affinity matured anti-NSP4 antibody clone 51.82 (Fab, V domains shown)
VH: B13 VH with K98R, R99G, H100L, L101F
VL: B1 VL with S91T, T93N, T94A
B22: affinity matured anti-NSP4 antibody clone 51.30 (Fab, V domains shown)
VH: B13 VH with S52P, P53T, T54A, R99S, H100L, L101F
VL: B1 VL with T94A

Target: T1, mouse zymogen NSP4 (mZ-NSP4) (mouse, UniProt Q14B24 36-284)
T1 chain: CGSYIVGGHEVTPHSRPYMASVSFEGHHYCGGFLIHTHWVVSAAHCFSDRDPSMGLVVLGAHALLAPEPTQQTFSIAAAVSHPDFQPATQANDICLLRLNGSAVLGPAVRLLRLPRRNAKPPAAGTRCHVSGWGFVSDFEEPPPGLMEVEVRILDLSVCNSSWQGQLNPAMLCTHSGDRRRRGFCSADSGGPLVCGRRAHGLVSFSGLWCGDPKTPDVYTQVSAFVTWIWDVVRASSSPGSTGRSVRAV
Assay: BLI; no affinity

Binder | Kd [nM]
B1 | > 1000
B2 | > 1000
B3 | > 1000
B4 | > 1000
B5 | > 1000
B6 | > 1000
B7 | > 1000

Target: T2, mouse active NSP4 (mA-NSP4) (mouse, UniProt Q14B24 40-284)
T2 chain: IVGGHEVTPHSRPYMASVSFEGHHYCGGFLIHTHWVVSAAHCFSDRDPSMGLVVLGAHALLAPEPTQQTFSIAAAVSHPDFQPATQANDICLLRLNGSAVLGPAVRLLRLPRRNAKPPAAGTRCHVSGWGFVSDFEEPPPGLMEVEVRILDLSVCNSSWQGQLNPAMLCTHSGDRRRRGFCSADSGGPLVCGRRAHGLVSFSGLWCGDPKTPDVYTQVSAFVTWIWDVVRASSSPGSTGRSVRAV
Assay: BLI; no affinity

Binder | Kd [nM]
B1 | > 1000
B2 | > 1000
B3 | > 1000
B4 | > 1000
B8 | > 1000
B5 | > 1000
B9 | > 1000
B6 | > 1000
B7 | > 1000

target: T3, human NSP4 (hNSP4), form not stated in Example 6 (human, UniProt Q6UWY2 34-283, limits assumed); assay: phage competition binding assay (phage IC50), soluble hNSP4 competitor
T3 sequence (looked up): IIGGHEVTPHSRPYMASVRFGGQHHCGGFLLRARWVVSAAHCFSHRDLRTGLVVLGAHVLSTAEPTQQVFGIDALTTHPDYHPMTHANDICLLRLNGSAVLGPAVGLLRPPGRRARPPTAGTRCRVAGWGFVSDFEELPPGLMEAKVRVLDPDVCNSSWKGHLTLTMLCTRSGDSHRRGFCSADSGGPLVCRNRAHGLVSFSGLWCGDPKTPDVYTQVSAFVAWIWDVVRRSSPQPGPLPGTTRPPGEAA

Binder | IC50 [nM]
B10 | 23.4
B11 | 22.8
B12 | 25.7

target: T4, mouse NSP4 (mNSP4), form not stated in Example 6 (mouse, UniProt Q14B24 40-284, limits assumed); assay: ratio of phage IC50 against the parental clone 35.WT
T4 construct: also called recombinant mouse NSP4; purified mouse NSP4
T4 sequence (looked up): T2 chain

Binder | Affinity improvement to mNSP4 [fold]
B10 | 2.7
B13 | 2
B11 | 1.7
B12 | 0.6

target: T5, human active NSP4 (hA-NSP4) (human, UniProt Q6UWY2 34-283); assay: competition phage ELISA (phage IC50): phage clone preincubated with soluble hA-NSP4, then on NSP4-coated wells
T5 construct: range 34-283; Insect-cell material of the same construct was used for the crystal structures; also called mature form of human NSP4
T5 sequence (looked up): T3 sequence (looked up)

Binder | IC50 [nM]
B14 | 4.96
B2 | 1.48
B15 | 3.81
B16 | 1.63
B8 | 5130
B9 | 10.1
B6 | 84.8

target: T6, mouse active NSP4 (mA-NSP4) (mouse, UniProt Q14B24 40-284); assay: competition phage ELISA (phage IC50): phage clone preincubated with soluble mA-NSP4, then on NSP4-coated wells
T6 construct: mature; Made from mZ by enteropeptidase cleavage; also called mature form of mouse NSP4
T6 sequence (looked up): T2 chain
Experimental: Phage at sub-saturating concentrations were first incubated with increasing concentrations of target NSP4 antigen (either hZ, hA, mZ, or mA) for 1 to 2 hour(s), and then transferred to wells coated with the same NSP4 antigen to capture the unbound phage.
Briefly, 2 ug/ml of NSP4 (hZ, hA, mZ, or mA variants) was coated on wells overnight at 4° C. in PBS supplemented with 0.5% BSA. Each individual phage clone (at 0.01 OD/ml) was purified and incubated with increasing concentrations of soluble NSP4 protein for 2 h at room temperature before being placed into wells coated with immobilized NSP4 protein for 15 min at room temperature. The wells were then washed with PBS supplemented with 0.05% Tween-20 for 10 times and developed using anti-M13 phage antibody conjugated with HRP (New England Biolabs). […] The soluble phage:antigen complex, with higher likelihood to be high-affinity phage clones, would thus be removed through successive washing steps, resulting in lower A450 signal at any given concentration of soluble antigen. Consequently, higher affinity phage clones would have a lower phage IC50 value, with a concomitant leftward-shift in the binding curves, compared to lower affinity phage clones.

Binder | IC50 [nM]
B17 | 25

target: T4, mouse NSP4 (mNSP4), form not stated in …; assay: phage competition binding assay (phage IC50), soluble mNSP4 competitor

Binder | IC50 [nM]
B18 | 0.375
B10 | 0.048
B13 | 0.064
B19 | 0.105
B11 | 0.075
B20 | 0.296
B12 | 0.206
B21 | 0.037
B22 | 0.116

target: T4, mouse NSP4 (mNSP4), form not stated in …; assay: ratio of phage IC50 against the parental clone 51.WT

Binder | Affinity improvement to mNSP4 [fold]
B18 | 49.8
B19 | 178
B20 | 63
B21 | 505
B22 | 161
